The target of data set [1] is AQP4 I43A, C-terminal GFP fusion (UniProt P55087). Put plainly: native gel or EMSA; BN-PAGE (8% bis-tris gel, pH 7.0, on ice) of whole-cell lysates of transfected HEK293 cells in 1% Triton X-100 BN lysis buffer, then immunoblot (anti-AQP4 or anti-GFP) and densitometry; self-association: tetramer, dimer, monomer bands. For orientation: In EMSA bound probe runs differently from free probe, usually more slowly.

For data set [2], the target named is AQP4 TM1 compound mutant (I43A/I47A/L50A/L51A/I57A), C-terminal GFP fusion (UniProt P55087). Described as above.
Data set [3] addresses wild-type human AQP1 (human) (UniProt P29972). The data set is described as above.
In data set [4] the target is AQP4 I43A, C-terminal GFP fusion (UniProt P55087). The data set can be described thus: BN-PAGE and Western blotting, densitometry. The settings on record: Triton X-100-solubilized protein from HEK293 cells; 3 experimental repeats; read off a plot. For orientation: In western blotting, separated proteins are transferred to a membrane and probed.
Target sequence in this assay (P55087 whole entry, stated change not applied, the tested form may be a part): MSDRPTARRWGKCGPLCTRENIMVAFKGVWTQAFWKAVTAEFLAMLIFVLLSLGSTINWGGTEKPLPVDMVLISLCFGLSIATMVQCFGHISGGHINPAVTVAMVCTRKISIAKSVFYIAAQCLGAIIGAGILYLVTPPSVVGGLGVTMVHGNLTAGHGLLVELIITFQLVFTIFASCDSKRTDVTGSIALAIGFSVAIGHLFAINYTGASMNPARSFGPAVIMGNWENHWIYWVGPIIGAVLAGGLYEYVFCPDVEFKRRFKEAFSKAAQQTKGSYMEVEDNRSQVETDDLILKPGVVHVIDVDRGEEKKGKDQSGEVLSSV
Data set [5] addresses AQP4 TM1 compound mutant (I43A/I47A/L50A/L51A/I57A), C-terminal GFP fusion (UniProt P55087). Put plainly: BN-PAGE and Western blotting, densitometry. To be noted: Triton X-100-solubilized protein from HEK293 cells; 3 experimental repeats; read off a plot.
Target sequence in this assay (P55087 whole entry I47A/L50A/L51A/I57A, stated change not applied, the tested form may be a part): as the sequence (P55087 whole entry, stated change not applied, the tested form may be a part) above, with I47A, L50A, L51A, I57A counted along it
Data set [6] deals with the molecule itself. Put plainly: native gel or EMSA; BN-PAGE (8% bis-tris gel, pH 7.0, on ice) of whole-cell lysates of transfected HEK293 cells in 1% Triton X-100 BN lysis buffer, then immunoblot (anti-AQP4 or anti-GFP) and densitometry; self-association: tetramer, dimer, monomer bands.

As a reminder, the stoichiometry N is a count of units in the complex or per binding partner. Consider “AQP4 I43A, C-terminal GFP fusion (from UniProt P55087 1-323) (natural protein)”, for which the stoichiometry N in data set [1] was determined as 4.

“AQP4 TM1 compound mutant (I43A/I47A/L50A/L51A/I57A), C-terminal GFP fusion (from UniProt P55087 1-323) (natural protein)” had a stoichiometry N in data set [2] of 4.

The molecule “wild-type human AQP1 (from UniProt P29972 1-269) (natural protein)” had a stoichiometry N in data set [3] of 4.

“wild-type human AQP4, C-terminal GFP fusion (from UniProt P55087) I43A” returned an other: % tetrameric protein in data set [4] of 100%.

For the molecule “wild-type human AQP4, C-terminal GFP fusion (from UniProt P55087) I43A; I47A; L50A; L51A; I57A”, the other: % tetrameric protein in data set [5] came to 100%.

B1: wild-type AQP10 (natural protein, human, UniProt Q96PS8 1-301, looked up)
chain: MVFTQAPAEIMGHLRIRSLLARQCLAEFLGVFVLMLLTQGAVAQAVTSGETKGNFFTMFLAGSLAVTIAIYVGGNVSGAHLNPAFSLAMCIVGRLPWVKLPIYILVQLLSAFCASGATYVLYHDALQNYTGGNLTVTGPKETASIFATYPAPYLSLNNGFLDQVLGTGMLIVGLLAILDRRNKGVPAGLEPVVVGMLILALGLSMGANCGIPLNPARDLGPRLFTYVAGWGPEVFSAGNGWWWVPVVAPLVGATVGTATYQLLVALHHPEGPEPAQDLVSAQHKASELETPASAQMLECKL
notes: aquaporin-10 (AQP10), human; The construct and its tag are not described; a GFP tag is surmised; source: HEK293, transfected, Triton X-100-extracted protein
Turning to B1, in data set [6], the “stoichiometry N” value stood at 4.

B2: AQP3 P181S/Y182K/N183R (natural protein, human, UniProt Q92482 1-292, looked up)
chain: MGRQKELVSRCGEMLHIRYRLLRQALAECLGTLILVMFGCGSVAQVVLSRGTHGGFLTINLAFGFAVTLGILIAGQVSGAHLNPAVTFAMCFLAREPWIKLPIYTLAQTLGAFLGAGIVFGLYYDAIWHFADNQLFVSGPNGTAGIFATYPSGHLDMINGFFDQFIGTASLIVCVLAIVDSKRNPVPRGLEAFTVGLVVLVIGTSMGFNSGYAVNPARDFGPRLFTALAGWGSAVFTTGQHWWWVPIVSPLLGSIAGVFVYQLMIGCHLEQPPPSNEEENVKLAHVKHKEQI
notes: aquaporin-3 (AQP3), human; DPYNN changed to DSKRN; The construct and its tag are not described; a GFP tag is surmised; also called AQP3 DSKRN mutant; source: HEK293, transfected, extracted with Triton X-100
With B2, in data set [6], the “stoichiometry N” value came out at 2.

B3: AQP3 P181E/Y182K/N183R (natural protein, human, UniProt Q92482 1-292, looked up)
chain: MGRQKELVSRCGEMLHIRYRLLRQALAECLGTLILVMFGCGSVAQVVLSRGTHGGFLTINLAFGFAVTLGILIAGQVSGAHLNPAVTFAMCFLAREPWIKLPIYTLAQTLGAFLGAGIVFGLYYDAIWHFADNQLFVSGPNGTAGIFATYPSGHLDMINGFFDQFIGTASLIVCVLAIVDEKRNPVPRGLEAFTVGLVVLVIGTSMGFNSGYAVNPARDFGPRLFTALAGWGSAVFTTGQHWWWVPIVSPLLGSIAGVFVYQLMIGCHLEQPPPSNEEENVKLAHVKHKEQI
notes: aquaporin-3 (AQP3), human; DPYNN changed to DEKRN; The construct and its tag are not described; a GFP tag is surmised; also called AQP3 DEKRN mutant; source: HEK293, transfected, extracted with Triton X-100
Take B3: in data set [6], the “stoichiometry N” value came out at 2.

B4: wild-type AQP9 (natural protein, human, UniProt O43315 1-295, looked up)
chain: MQPEGAEKGKSFKQRLVLKSSLAKETLSEFLGTFILIVLGCGCVAQAILSRGRFGGVITINVGFSMAVAMAIYVAGGVSGGHINPAVSLAMCLFGRMKWFKLPFYVGAQFLGAFVGAATVFGIYYDGLMSFAGGKLLIVGENATAHIFATYPAPYLSLANAFADQVVATMILLIIVFAIFDSRNLGAPRGLEPIAIGLLIIVIASSLGLNSGCAMNPARDLSPRLFTALAGWGFEVFRAGNNFWWIPVVGPLVGAVIGGLIYVLVIEIHHPEPDSVFKTEQSEDKPEKYELSVIM
notes: aquaporin-9 (AQP9), human; The construct and its tag are not described; a GFP tag is surmised; source: HEK293, transfected, Triton X-100-extracted protein
For the molecule B4, in data set [6], the “stoichiometry N” value was found to be 4.

Values taken from PMC4807272, “Structural Determinants of Oligomerization of the Aquaporin-4 Channel*” (The Journal of Biological Chemistry, 2016).
